Measurements from the RNAGym collection of RNA variant scans (doi:10.1073/pnas.2313332121).
Fewer inactive variants are shown than the library holds.

B1: TPR 5TU (parent)
chain: GGAUCUUCUCGAUCUAACAAAAAAGACAAAUCUGCCACAAAGCUUGAGAGCAUCUUCGGAUGCAGAGGCGGCAGCCUUCGGUGGCGCGAUAGCGCCAACGUUCUCAACUAUGACACGCAAAACGCGUGCUCCGUUGAAUGGAGUUUAUCAUG

Variants of: B1
Assay: polymerase ribozyme fitness, log enrichment relative to wild type (log ratio); higher = more active; in vitro selection for triplet polymerase activity
Procedure, shortened: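 One round of in vitro selection, in triplicate, was applied to PCR-built, transcribed mutant libraries of each subunit of a heterodimeric triplet polymerase ribozyme. The steps were annealing with a biotinylated primer, partner subunit and triplets, incubation frozen at −7 °C, gel excision of extended constructs, streptavidin-bead capture and RT-PCR. Fitness is the logarithm, base 2, of genotype enrichment over wild-type enrichment from inverse-variance-weighted replicate averages of Illumina-sequenced inputs and outputs, keeping genotypes with ≥10 input reads and ≥1 read per output.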

Variant | polymerase ribozyme fitness (log ratio)
A47G A147U | 0.466
U44A C85G U90C U104G | ≤ -4.2
A47C C57A G84A U101C | -0.765
U44A G50C | ≤ -4.2
U44C A89U C103A A120U | ≤ -4.2
U44A G48C G59A U82C C116G C123U U134C | ≤ -4.2
A47G C93A C131U U134C | -0.603
G46A A52G G86U A91G A98U C114G | ≤ -4.2
A47U C95U A115G | -2.68
U44A U55A C69G G86U G141A | -4.2
A47C G141C U148G | ≤ -4.2
A47G C99A A142U | -2.48
A47C G124U | -1.09
G48A A137G C149U | -3.82
A47U G70U A122G | -3.45
G48U C85U | -0.485
G46A A52C U139G | -3.91
A47G U90A | -3.82
G46U C69U C96A A110U A121C | ≤ -4.2
U44A A52G C85A C118U | ≤ -4.2
U45A G62C A107U | ≤ -4.2
U44G A73G A91G A107C | ≤ -4.2
U45A U56G A66C G67C G71U C85G G88U A89G C99U A110G C132G | ≤ -4.2
G46A A91G G136U | ≤ -4.2

Variant | polymerase ribozyme fitness (log ratio)
A47U C54A C75G G140A | ≤ -4.2
A47G G80A | -0.0419
U44A U56A U61A A97U | ≤ -4.2
G46U G83A G143C | -4.16
G48A U56A C85U A110G G141U | ≤ -4.2
A47U C93G | -3.23
G46C G74C C87A | ≤ -4.2
G46C U77G A142C | ≤ -4.2
U45G C85U | -0.0479
G46U C99U | -1.06
A47C C96A C123G U151G | ≤ -4.2
U44G A120U | ≤ -4.2
G46C G50C G59U C118U G126C | ≤ -4.2
G48U A120U | -0.0736
A47G G59C U61A G92C G141A U148C | ≤ -4.2
A47G C54A | -1.65
G48C U102G | -2.42
U44A C79U A89G U104A A107G | ≤ -4.2
G48C G80A C85U A120U A137G | ≤ -4.2
A47C C54A C76U C85G A106U G143C | ≤ -4.2
U45G C85G C93U | ≤ -4.2
G46U A120C | -0.32
G46C C54A U61A C63U G70A G84A C93U G100A C116G | ≤ -4.2
A47G U82G C95G | -3.89

Variant | polymerase ribozyme fitness (log ratio)
U44A G92A C93A G141C | ≤ -4.2
U44A U45A A49C C57U G70A G84U A91U C123G | ≤ -4.2
G48C C85A C118A | -1.39
G46U U77G C87U A89U C93A G124U | ≤ -4.2
G48C G59C G92U C99G A106U | ≤ -4.2
U45G U53A C85U | -1.63
A47U U56A A122G U127C | -2.55
G46C U90A | ≤ -4.2
U44A C51U C76U A106U A110G | ≤ -4.2
U44A G117A U135G | ≤ -4.2
G48U A73G | -1.15
A47U G81C C85G G86U C95U A106C G143A | ≤ -4.2
A47C A52U U82A A120U | -1.94
U44A C54A U77A G92C C118A A120G G136C G140A | ≤ -4.2
G46U A64U C76A C87A G126U | ≤ -4.2
A47U C87U A91U C95U C114G A120C | ≤ -4.2
A47U A52G A119C | -1.05
A47C U55A C57A G84U C96U C99U G136A G143C | ≤ -4.2
A47G G59A | 0.381
G48U A49C G68U G74A C76A G88U C116G | ≤ -4.2
A47G U61G A142G | -2.82
A47U A89G C131A | ≤ -4.2
G46U U61A G92U C96A A137G | ≤ -4.2
U45A C85U C118G A138U | -4.16

Variant | polymerase ribozyme fitness (log ratio)
U45G G50A C54U A120C G126C | ≤ -4.2
A47C U55A C87G A91G A150G | ≤ -4.2
A47C G68A C96G C99A | ≤ -4.2
G48A G62A A73U A91G C95G U139A A142C | ≤ -4.2
G48C C118U | -0.625
U45C A52G C57A G92C | -2.64
G48C C85U | -1.95
G48U U56A C87G U90C | -4.07
G46A G50C A52C C69A | ≤ -4.2
U44G G81C C96U C108G | ≤ -4.2
U45A G94A | -2.81
A47U G84U | -1.78
A47U C57U | 0.131
A47C G83A C118U G133C U148C | ≤ -4.2
G46A G143C | -3.81
G46U A60U G92C U139G | ≤ -4.2
U45A A64U G67C G74A G83A A120G | ≤ -4.2
G46U G83U A119U C123A U145C | -3.34
U45A G46C C85G G88C C93U A115C A150G | ≤ -4.2
G46U G62A C76A C87U G88A C118U U134A | ≤ -4.2
A47U G83U A122U | -0.574
G48C G62C C108G A137U U146A | ≤ -4.2
A47G C69A A122G | -3.43
U45A A47C C54A C57A U90C G140C | ≤ -4.2

Variant | polymerase ribozyme fitness (log ratio)
U44C C54U | -3.56
U44A C95U C96G A120C | ≤ -4.2
G48U A52C C93U | -3.41
G46U G59A G74A G84C U104C G112C U134G U145A | ≤ -4.2
U44A A52C | -3.94
A47U U61A | -1.41
U45G C79G G83U C85G U102C | ≤ -4.2
A47C C57G G58C | 0.275
A47C U56G A91U C96G C118U A122C C131U U139C U148A | ≤ -4.2
A47G U55A C116G | -0.139
U44A U144G U151G | ≤ -4.2
U44A U55A C75A G84A C105U | ≤ -4.2
A47G A98G A115G C123G U130A | -3.77
A47C C51A C54U U61A C79A C93G C95A C132U C149U | ≤ -4.2
A47G C51G C76U C87U U104G A107U U151C | ≤ -4.2
G46A U56A U82C C93A A107G C125U G136U | ≤ -4.2
G48C C99U C105G | ≤ -4.2
A47G C57U U109G | -0.869
A47G G68A C72U G81A A89G U148A | ≤ -4.2
G48C C79A G86U C96U G124A | ≤ -4.2
A47C C85G C96U C125U | ≤ -4.2
A47U C95U | -0.679
U45A G50A U55G C87G G94C | ≤ -4.2
G46A G74C | ≤ -4.2

Variant | polymerase ribozyme fitness (log ratio)
A47U A52G U144G | 0.507
G46A G59U | 0.917
G48U G86U | -1.58
A47G C85G U90C G124U | ≤ -4.2
U45A U109C | -3.44
U44A G84A C85G C95G C99U | -3.94
G46C A49U U56A G86A C87A C103G A147U | ≤ -4.2
G48A U56A U109G | -1.39
U45A U77G G84U C118U | ≤ -4.2
U45A G65A U82A A106U | -0.414
U45G C87U U111G A147C | ≤ -4.2
A47C C87U C105A A119C | -1.51
G48C A73U U101C U104A A115G G124U | ≤ -4.2
U45A G50A U135G | ≤ -4.2
G46C C93U | -2.47
U44A U90G C93U G143A U151G | ≤ -4.2
U45C G46A U61G G62C C76A | ≤ -4.2
U45A U77G G86U U104A C123A | ≤ -4.2
U45G G50A A73C C93U C96U C99A C108A G112C G124U U127G A142G C149G | ≤ -4.2
G48A C79A C85G A110U G124A | ≤ -4.2
A47U C76U A119C U139G | -2.8
U45G G94A A137G | -2.23
G46U A47C G58U C108U A119U G128U | ≤ -4.2
G46A A52C U61G | -0.687

Variant | polymerase ribozyme fitness (log ratio)
G48A U127G | -3.5
G46C U61A C63U U82A A122G | ≤ -4.2
U45A G83C | -3.51
U45A C76U C125G | -3.81
G48A A60G G83U G126U U134C | -3.58
U44A C54A C75G G92U U145C | ≤ -4.2
G48A G136C | -2.57
G46A C85A C87U C99A | ≤ -4.2
A47U U77C | -4.09
U45G C93A C116U | -2.88
U44A G81A A137G | ≤ -4.2
A47C C69A C87U G100U A121G G143U | ≤ -4.2
G48A A52G U55G G70C C96A | ≤ -4.2
A47G C87A U90G A98G C99A G117C C149A | ≤ -4.2
A47C U151G G152A | -4.19
G46A C96U U134G A138G | ≤ -4.2
G46A C54A G94C G117A A122U G124A | -3.11
G48C G59A C85U C129A | -4.08
A47C U61C C96U | -3.35
G46C G48A A73U U77C G80U C87U | -3.85
G48U G59U | 0.371
A47C A150U | -0.247
G46A G70U C85G | ≤ -4.2
